In the assay the target is fibronectin (125I labelled). The assay is described as follows: inhibition assay in tubes; control lysate undiluted; 125I fibronectin bound to S. aureus Cowan I cells (competitor).

For “lysate of E. coli TG1 with pUC18-vector without insert (negative control) (pool or library)”, the % binding in relation to control without lysate came out at 83.3%.

Values taken from patent publication US6086895.
